Data on 29 sequences can be found in the supplement of paper PMC9170038.

This data set has as its system MS2 coat protein. In words: apparent KD of MS2 coat protein; higher = weaker reporter binding. The conditions noted are these: Eterna round: R107. Summed up:
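On-chip transcription from Illumina sequencing clusters produced the designed RNA switches. These were titrated with SNAP-549-labelled MS2 coat protein (twofold steps, 0.7 or 1.5 nM to 3 µM) in 100 mM Tris-HCl pH 7.5, 80 mM KCl, 4 mM MgCl2, with or without constant ligand. The apparent KD given is the per-design median of normalised cluster binding-curve fits.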

Setting [1] is: input ligand: theophylline 20 uM.
The mark [2] stands for this setting: input ligand: theophylline 2 mM.
The mark [3] stands for this setting: input ligand: tryptophan 2.4 mM.

With “UGUAUGUGAUUUGAUACCAGACCAGCUGGUGGUACUUGAGGAUCACCCAAGUAGGUUUGGGUCCCUUGGCAGCAAAUCGCAUACU [SS Theo B #24 Ms10]”, the “apparent KD of MS2 coat protein” value by setting is: (input ligand: arginine 13.2 mM) 165 nM; (input ligand: none) 163 nM; under setting [1], 142 nM; under setting [2], 30.8 nM; under setting [3], 198 nM.
The like results for “UGUAUGUGAUUUGAUACCAGACCAGCUGGUGGUAUCUGAGGAUCACCCAGGUAGGUUUGGGUCCCUUGGCAGCAAAUCGCAUACU [SS Theo B #24 Ms15]” were, in that order, 145 nM, 186 nM, 892 nM, 335 nM and 1720 nM.
Take “UGUAUGUGAUUUGAUACCAGACCAGCUGGUGUUCCAUGAGGAUCACCCAUGGAGGUUUGGGUCCCUUGGCAGCAAAUCGCAUACU [SS Theo B #24 Ms16]”: the “apparent KD of MS2 coat protein” value was 33.2 nM (input ligand: arginine 13.2 mM); 25.2 nM (input ligand: none); 34 nM under setting [1]; 23.2 nM under setting [2]; 30.3 nM under setting [3].
In the case of “UGUAUGUGAUUUGAUACCAGUUCUGCUGGUAAAACAUGAGGAUCACCCAUGUUACUUUGGGACCCUUGGCAGCAAAUCGCAUACU [SSTheo B #27]”, the “apparent KD of MS2 coat protein” value reads like this: (input ligand: arginine 13.2 mM) 90 nM; under setting [1], 119 nM; under setting [3], 202 nM.
As to “UGUCAGCGAAAGUUGACAUGUCUUACCGGUCGAGGACCGGUACGGCCGCCACUCGAUCUCUCGCACAUGAGGAUCACCCAUGUUG [SS Tryp A #22]”, the “apparent KD of MS2 coat protein” value is 19.3 nM (input ligand: arginine 13.2 mM), 29 nM under setting [1] and 26.5 nM under setting [2].
As for “UGUCGGCCGCCAGGAAAUGGUGGCCGACAUCGAGGACCGGUACGGCCGCCACUCGGUCGUACAUGAGGAUCACCCAUGUCGGUGA [SameState-Tryptophan_A Attempt #10 (HarryS)]”, the “apparent KD of MS2 coat protein” value runs as follows: (input ligand: arginine 13.2 mM) 72.9 nM; (input ligand: none) 496 nM; under setting [1], 508 nM; under setting [2], 942 nM; under setting [3], 1200 nM.
“UGUGCAGGAUGCGUAAAGGGUCUUGCGCAUCGAGGACCGGUACGGCCGCCACUCGGCUGUACAUGAGGAUCACCCAUGUCAGGGU [#1 Same State - Tryptophan A Attempt #19 (HarryS)]”: the “apparent KD of MS2 coat protein” value amounted to 87.1 nM (input ligand: arginine 13.2 mM); 477 nM (input ligand: none); 445 nM under setting [1]; 1830 nM under setting [2]; 533 nM under setting [3].
On to “UGUGUCGUCUGAAGGAGCGGCCCUUGAUCCUCGUGAGACAUGAGGAUCACCCAUGUCUCGGGCCAGGUAGGUCGCAGGCGGCACA [#25 Exclusion - Arginine B]”, for which the “apparent KD of MS2 coat protein” value is 11.5 nM (input ligand: arginine 13.2 mM); 11.9 nM (input ligand: none); 17.2 nM under setting [1]; 12.8 nM under setting [2]; 12.6 nM under setting [3].
With “UGUUUUAAAAGUGAUACCAGACAAACAUGAGGAUCACCCAUGUAACAUGAGAGAUAAUAAGUCCCUUGGCAGCACAUAAUUAGUA [JR_Nu_SSTheophyB_Sub028]”, the “apparent KD of MS2 coat protein” value was found to be 27 nM (input ligand: arginine 13.2 mM), 33.1 nM under setting [1] and 31.5 nM under setting [3].
In the case of “UGUUUUGUGAUGGAUACCAGCAGAGAAAACGUUUAUCCUAACAUGAGGAUCACCCAUGUAUGCCCUUGGCAGCUGUUGUGGGAUA [8.R]”, the “apparent KD of MS2 coat protein” value reads like this: (input ligand: arginine 13.2 mM) 27.2 nM; under setting [1], 43.9 nM; under setting [3], 27.9 nM.
In the case of “UUAAUCAAAUUAGAAAACUAAUUUGCAGAAGGAGCGUGAUAAAACACAGGUAGGUCGCUGAAGGGAACAUGAGGAUCACCCAUGU [AstrosSSArgA#11]”, the “apparent KD of MS2 coat protein” value worked out at 26.7 nM (input ligand: arginine 13.2 mM); 26 nM (input ligand: none); 35.7 nM under setting [1]; 29.5 nM under setting [2]; 25.7 nM under setting [3].
With “UUAAUCAUAUAAGAAAACUUAUAUGCAGAAGGAGCGUGAUAAAACACAGGUAGGUCGCUGAAGGGAACAUGAGGAUCACCCAUGU [AstrosSSArgA#7]”, the “apparent KD of MS2 coat protein” value runs as follows: (input ligand: arginine 13.2 mM) 28 nM; (input ligand: none) 23.4 nM; under setting [1], 36.2 nM; under setting [2], 32.4 nM; under setting [3], 28.8 nM.
On to “UUAAUCAUGUUAGAAAACUAAUAUGCAGAAGGAGCGUGAUAAAACACAGGUAGGUCGCUGAAGGGAACAUGAGGAUCACCCAUGU [AstrosSSArgA#9]”, for which the “apparent KD of MS2 coat protein” value amounted to 42.8 nM (input ligand: arginine 13.2 mM); 37 nM (input ligand: none); 43.6 nM under setting [1]; 37.3 nM under setting [2]; 34.8 nM under setting [3].
On to “UUAAUUAUAUAUUAUAUAAUAUAUACAGAAGGAGCGUGAUAAAACACAGGUAGGUCGCUGAAGGGAACAUGAGGAUCACCCAUGU [AstrosSSArgA#1]”, for which the “apparent KD of MS2 coat protein” value turned out to be 26.9 nM (input ligand: arginine 13.2 mM); 25.6 nM (input ligand: none); 38.5 nM under setting [1]; 48.6 nM under setting [2]; 30 nM under setting [3].
As to “UUACAUGAGGAUCACCCAUGUCAUAACGAUACCAGAUAGUUAAUGAUCCCUUGGCAGCGUAAUACCUAGACAUUUAAGUCAUAGG [#25 SameState-TheophyllineA]”, the “apparent KD of MS2 coat protein” value is 35.3 nM (input ligand: arginine 13.2 mM), 63.2 nM under setting [1] and 50.9 nM under setting [3].
The like results for “UUACGAGGCUAUCCACUUUGAUUUUGUGAUACCAGAAUAAUUUUAUUCCCUUGGCAGCAUGACAUGAGGAUCACCCAUGUGUCUU [SSTheo A #4]” were, in that order, 34.3 nM, 47.4 nM and 42.5 nM.
As for “UUAGAUAUGACAGAUACCAGCGUGUUAUAAAACAUGAGGAUCACCCAUGUAGUGAUCGAGCGCCCUUGGCAGCUGGUGUGUUUGG [7.R]”, the “apparent KD of MS2 coat protein” value runs as follows: (input ligand: arginine 13.2 mM) 69.7 nM; under setting [1], 175 nM; under setting [3], 148 nM.
With “UUAGAUAUGACGGAUACCAGCGUGUUGUAGAACAUGAGGAUCACCCAUGUAGUGAUCAUGCGCCCUUGGCAGCUGGUAUGUUUGG [7.U]”, the “apparent KD of MS2 coat protein” value (input ligand: arginine 13.2 mM) was determined as 178 nM, the “apparent KD of MS2 coat protein” value under setting [1] worked out at 386 nM and the “apparent KD of MS2 coat protein” value under setting [3] is 566 nM.
In the case of “UUAUUUAACGGAAGGAGCGCGGAUAAUAAAGUGGGUAAACAUGAGGAUCACCCAUGUAAACCGCAGGUAGGUCGCCGAUAUUUAU [AstrosEXyARgB#6]”, the “apparent KD of MS2 coat protein” value came to 43.9 nM (input ligand: arginine 13.2 mM); 56.5 nM (input ligand: none); 77.6 nM under setting [1]; 72.9 nM under setting [2]; 42.6 nM under setting [3].
Consider “UUCAGCUAGUCGGCCGCCACUACAUGAGGAUCACCCAUGUCGGUCCUCACUGCUUCGGCAGUGUGUAGGACCGGGACUAGCUGAG”, for which the “apparent KD of MS2 coat protein” value amounted to 62 nM (input ligand: arginine 13.2 mM), 93.6 nM under setting [1] and 91.3 nM under setting [2].
“UUCAGCUAGUCGGCCGCCACUACAUGAGGAUCACCCAUGUUCCUAAAACACUGCUUCGGCAGUGGUAGGACCGGGACUAGCUGAG”: the “apparent KD of MS2 coat protein” value reads like this: (input ligand: arginine 13.2 mM) 41.1 nM; (input ligand: none) 31.7 nM; under setting [1], 48.5 nM; under setting [2], 42 nM; under setting [3], 256 nM.
As for “UUCAGCUAGUCGGCCGCCACUACUUGAGGAUCACCCAAGUAGGUCCACACUGCUUCGGCAGUGAGUAGGACCGGGACUAGCUGAG”, the “apparent KD of MS2 coat protein” value came to 13.7 nM (input ligand: arginine 13.2 mM); 14.7 nM (input ligand: none); 13.5 nM under setting [1]; 11.5 nM under setting [2]; 35.3 nM under setting [3].
“UUCAGCUAGUCGGCCGCCACUACUUGAGGAUCACCCAGGUAAUCCUAACACUGCUUCGGCAGUGGUAGGACCGGGACUAGCUGAG”: the “apparent KD of MS2 coat protein” value by setting is: (input ligand: arginine 13.2 mM) 24 nM; (input ligand: none) 19 nM; under setting [1], 21.6 nM; under setting [2], 24.5 nM; under setting [3], 103 nM.
For the sequence “UUCAGCUAGUCGGCCGCCACUGCAUGAGGAUCACCCAUGUAGGUCCACACUGCUUCGGCAGUGAGUAGGACCGGGACUAGCUGAG”, the “apparent KD of MS2 coat protein” value runs as follows: (input ligand: arginine 13.2 mM) 11.4 nM; (input ligand: none) 9.41 nM; under setting [1], 12.9 nM; under setting [2], 10.8 nM; under setting [3], 13.7 nM.
“UUCAGCUAGUCGGCCGCCACUGCUUGAGGAUCACCCAAGUAGGUCCACACUGCUUCGGCAGUGAGUAGGACCGGGACUAGCUGAG”: the “apparent KD of MS2 coat protein” value reads like this: (input ligand: arginine 13.2 mM) 10.9 nM; (input ligand: none) 10.1 nM; under setting [1], 14.4 nM; under setting [2], 10.1 nM; under setting [3], 25.8 nM.
Turning to “UUCUACGACGAUCUGGGAAAACCAGAUCGACGAGGACCGGUACGGCCGCCACUCGUGUUUCUUUAACAUGAGGAUCACCCAUGUA [#12 Tryptophan A Same State]”, the “apparent KD of MS2 coat protein” value reads like this: (input ligand: arginine 13.2 mM) 23.6 nM; under setting [1], 28 nM; under setting [2], 27.8 nM.
Turning to “UUCUUUAAGUCGGCCGCCACUGAAACAUGAGGAUCACCCAUGUAUAUUUGGGUAUAGGUGGAUUACAGGACCGGGACUAUAGUAA [JR_ExcTryptoB_Sub022]”, the “apparent KD of MS2 coat protein” value is 31.2 nM (input ligand: arginine 13.2 mM); 66.1 nM (input ligand: none); 72.3 nM under setting [1]; 104 nM under setting [2]; 79.6 nM under setting [3].
With “UUGACAUGAGGAUCACCCAUGUUAGCGGAAGGAGCGCGGUAGUACGCAGGUAGGUCGCCGAGAACAGUGAUAGUUGUUCUCAUGU [X-ArgiA-ms2@4-1]”, the “apparent KD of MS2 coat protein” value runs as follows: (input ligand: arginine 13.2 mM) 27.6 nM; (input ligand: none) 76.6 nM; under setting [1], 85 nM; under setting [2], 91.2 nM; under setting [3], 46.9 nM.
For “UUGGGUUUGUGAAGGAGCGGGUAUGUUUUAUAGUGGAUCCUAACAUGAGGAUCACCCAUGUCCCAGGUAGGUCGCGCGGGUUUGG [12.T]”, the “apparent KD of MS2 coat protein” value by setting is: (input ligand: arginine 13.2 mM) 54.4 nM; (input ligand: none) 78.3 nM; under setting [1], 203 nM; under setting [2], 149 nM; under setting [3], 117 nM.
